The target in the assay is T1, full-length II–III loop of the skeletal muscle dihydropyridine receptor α1S subunit (UniProt P07293 665-785).
T1 construct: cytosolic II–III loop of the DHPR α1S subunit (skeletal muscle voltage-dependent L-type calcium channel), 115 amino acids; The methods' sentence 'genes for human STAC2SH3s and the DHPR II–III loop' leaves open whether the loop is human; Used unlabelled (SPR, immobilised) and 15N-labelled (NMR); also called DHPR II–III loop; full II–III loop
T1 sequence (looked up): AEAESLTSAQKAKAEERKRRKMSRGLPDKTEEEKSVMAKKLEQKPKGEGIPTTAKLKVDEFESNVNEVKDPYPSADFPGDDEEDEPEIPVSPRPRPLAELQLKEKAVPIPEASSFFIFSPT
In words: SPR; full DHPR II–III loop immobilised on a CM5 chip by amine coupling; STAC proteins flowed over at 30 μL/min for 120 s; Biacore 8K, 20°C; 10 mM HEPES-HCl pH 7.4, 150 mM NaCl, 0.05% Tween-20, 3 mM EDTA; affinity curve. As to conditions: both partners purified. Background: In SPR one partner is held on a chip, and binding of the other changes the refractive index at the surface.

B1: tandem SH3 domains of STAC2 (domain or fragment, human)
chain: SYVALYKFLPQENNDLALQPGDRIMLVDDSNEDWWKGKIGDRVGFFPANFVQRVRPGENVWRCCQPFSGNKEQGYMSLKENQICVGVGRSKDADGFIRVSSGKKRGLVPVDALTEI
notes: human STAC2, tandem SH3 domains (SH3_1 and SH3_2) at the C-terminal end; Used unlabelled (SPR) and 15N-labelled (NMR); also called STAC2SH3s
What is called Kd is the constant that tells how readily two partners part at equilibrium. A low value points to a tighter complex. B1 showed a Kd of 22.6 µM.

B2: tandem SH3 domains of STAC3 (SH3 and cysteine-rich domain-containing protein 3) (domain or fragment, human)
chain: GFQQSHYFVALYRFKALEKDDLDFPPGEKITVIDDSNEEWWRGKIGEKVGFFPPNFIIRVRAGERVHRVTRSFVGNREIGQITLKKDQIVVQKGDEAGGYVKVYTGRKVGLFPTDFLEEI
notes: human STAC3, tandem SH3 domains (SH3_1 and SH3_2) at the C-terminal end; Used unlabelled (SPR, titrant in NMR) and 15N-labelled (NMR titration with the C3 peptide); also called STAC3SH3s
Molecule B2 had a Kd of 21 µM.

Source of the values: publication PMC9019556, “Molecular interactions of STAC proteins with skeletal muscle dihydropyridine receptor and excitation‐contraction coupling” (Protein Science : A Publication of the Protein Society, 2022).
